{
  "source": "paper PMC11161652",
  "about": "“ASXLs binding to the PHD2/3 fingers of MLL4 provides a mechanism for the recruitment of BAP1 to active enhancers” (Nature Communications, 2024)",
  "binders": {"B1": {"name": "ASXL2 peptide (residues 650-670 of ASXL2) (peptide, UniProt Q76L83 650-670, looked up)", "peptide": "NRTGARTLADIKAKAQLVKAQ", "notes": "also called ASXL2 (aa 650-670); MBH of ASXL2; source: synthetic peptide (SynPeptide)"}},
  "key": {"MLL3_(PHD2/3) D372K [1]": {"target": "T1, MLL3_(PHD2/3) D372K (human, UniProt Q8NEZ4 342-439, D372K)", "T1 construct": "human MLL3 (KMT2C), aa 342-439; source: E. coli BL21-CodonPlus, purified as WT", "T1 sequence (looked up)": "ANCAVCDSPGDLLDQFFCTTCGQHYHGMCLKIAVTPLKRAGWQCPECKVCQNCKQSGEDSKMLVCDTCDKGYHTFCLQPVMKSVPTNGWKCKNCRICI", "test": "not stated; fluorescence spectroscopy or NMR: the legends of Fig. 3c and Fig. 4b say that values marked (a) are from NMR and the others from fluorescence; the text does not tell which for these pairs", "settings": "both partners purified"}, "MLL4_(PHD2/3) D285K": {"target": "T2, MLL4_(PHD2/3) D285K (human, UniProt O14686 227-324, D285K)", "T2 construct": "human MLL4 (KMT2D), aa 227-324; source: E. coli BL21-CodonPlus, purified as WT", "T2 sequence (looked up)": "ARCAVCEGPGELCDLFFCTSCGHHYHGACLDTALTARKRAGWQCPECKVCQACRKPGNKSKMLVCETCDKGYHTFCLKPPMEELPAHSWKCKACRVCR", "test": "not stated; fluorescence spectroscopy or NMR: the legends of Fig. 3c and Fig. 4b say that values marked (a) are from NMR and the others from fluorescence; the text does not tell which for these pairs", "settings": "both partners purified"}, "MLL3_(PHD2/3) D372N": {"target": "T3, MLL3_(PHD2/3) D372N (human, UniProt Q8NEZ4 342-439, D372N)", "T3 sequence": "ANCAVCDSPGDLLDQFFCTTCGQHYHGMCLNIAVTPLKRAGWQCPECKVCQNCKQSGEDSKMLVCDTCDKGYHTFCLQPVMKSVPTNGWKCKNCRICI"}, "MLL3_(PHD2/3) D400K": {"target": "T4, MLL3_(PHD2/3) D400K (human, UniProt Q8NEZ4 342-439, D400K)", "T4 sequence": "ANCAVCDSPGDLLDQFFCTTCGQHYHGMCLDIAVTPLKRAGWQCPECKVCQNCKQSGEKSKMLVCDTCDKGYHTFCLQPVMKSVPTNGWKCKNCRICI"}, "MLL3_(PHD2/3) D372K [2]": {"target": "T5, MLL3_(PHD2/3) D372K (human, UniProt Q8NEZ4 342-439, D372K)", "T5 sequence": "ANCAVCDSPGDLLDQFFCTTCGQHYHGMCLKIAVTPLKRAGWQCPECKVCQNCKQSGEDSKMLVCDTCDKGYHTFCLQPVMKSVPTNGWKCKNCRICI"}, "MLL3_(PHD2/3) E387Q": {"target": "T6, MLL3_(PHD2/3) E387Q (human, UniProt Q8NEZ4 342-439, E387Q)", "T6 sequence": "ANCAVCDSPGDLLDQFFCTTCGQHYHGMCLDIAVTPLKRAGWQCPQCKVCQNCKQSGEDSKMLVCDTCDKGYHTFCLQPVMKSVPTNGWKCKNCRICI"}},
  "data": [
    {"binder": "B1", "values": [
      {"measurement": "fold reduction in binding against wild type MLL3_(PHD2/3)", "setting": "MLL3_(PHD2/3) D372K [1]", "value": "~40", "unit": "fold"},
      {"measurement": "Kd", "setting": "MLL4_(PHD2/3) D285K", "value": "~1700", "unit": "µM"},
      {"measurement": "Kd", "setting": "MLL3_(PHD2/3) D372N", "value": 9, "unit": "µM"},
      {"measurement": "Kd", "setting": "MLL3_(PHD2/3) D400K", "value": 540, "unit": "µM"},
      {"measurement": "Kd", "setting": "MLL3_(PHD2/3) D372K [2]", "value": 55, "unit": "µM"},
      {"measurement": "Kd", "setting": "MLL3_(PHD2/3) E387Q", "value": 6, "unit": "µM"}
    ]}
  ]
}
